This passage reports stoichiometry N results from PMC4894967.

This test addresses ATM/Tel1 kinase from Schizosaccharomyces pombe (S. pombe) (UniProt O74630). The test is described as follows: cryo-EM structure; single-particle cryo-EM of purified ATM/Tel1, 20-50 ug/ml in 20 mM HEPES pH 8.0, 40 mM KOAc, 5 mM MgCl2, 0.1% trehalose, 2 mM DTT, 0.01% NP-40; 8.7 Å; initial model from negative-stain RCT.

On to “ATM/Tel1 kinase from Schizosaccharomyces pombe, O74630 1-2812”, for which the stoichiometry N – broadly, the number of molecules, sites or subunits per partner or assembly – worked out at 2.
